According to IntAct's records for PubMed 15328537:

B1: Emerin (Homo sapiens), P50402 (parent)
chain: MDNYADLSDTELTTLLRRYNIPHGPVVGSTRRLYEKKIFEYETQRRRLSPPSSSAASSYSFSDLNSTRGDADMYDLPKKEDALLYQSKGYNDDYYEESYFTTRTYGEPESAGPSRAVRQSVTSFPDADAFHHQVHDDDLLSSSEEECKDRERPMYGRDSAYQSITHYRPVSASRSSLDLSYYPTSSSTSFMSSSSSSSSWLTRRAIRPENRAPGAGLGQDRQVPLWGQLLLFLVFVIVLFFIYHFMQAEEGNPF

Variants of: B1
Conditions: with acts_rabit ACTA1, P68135

effect of a mutation on the interaction	Variant
disrupting interaction	Q133H
